Measured values reported in US20170066816A1 (University of Texas, published 2017).

B1: murine m1B7 antibody (antibody, V domains shown)
VH: QVQLQQPGSELVRPGASVKLSCKASGYKFTSYWMHWVKQRPGQGLEWIGNIFPGSGSTNYDEKFNSKATLTVDTSSNTAYMQLSSLTSEDSAVYYCTRWLSGAYFDYWGQGTTLTVSS
VL: QIVLTQSPALMSASPGEKVTMTCSASSSVSFMYWYQQKPRSSPKPWIYLTSNLPSGVPARFSGSGSGTSYSLTISSMEAEDAATYYCQQWSSHPPTFGSGTKLEIK
notes: also called parental murine 1B7 antibody
B2: chimeric 1B7 antibody (antibody, V domains shown)
VH: B1 VH
VL: B1 VL
notes: also called ch1B7
B3: murine m11E6 antibody (antibody, V domains shown)
VH: EVKVVESGGGLVQPGGSLRLSCTTSGFTFTDYYVSWVRQPPGKALEWLGFIRNKVNGYTTEFSSSVKGRFTISRDNSQSILYLQMNTLRVEDSATYYCARVSYYGRGWYFDYWGQGTTLTVSS
VL: DIVMTQSTSSLSASLGDRVTISCRASQDIDNYLSWFQQKPDGTVKLLIYYTSRLHSGVPSRFSGSGSGTDYSLTISSLDQEDIATYFCQQGNTFPWTFGGGTKLEIK
notes: also called parental murine 11E6 antibody

The binders below were run against T1, pertussis toxin protein (Bordetella pertussis, UniProt P04977 35-269; P04978 28-226; P04979 29-227; P0A3R5 43-152; P04981 35-133) (assay: BIAcore).
T1 construct: also called PTx; PT

| Binder | kon |
| --- | --- |
| B1 | 170000 M⁻¹ s⁻¹ |
| B2 | 150000 M⁻¹ s⁻¹ |
| B3 | 80000 M⁻¹ s⁻¹ |
